Assay results taken from US6362319B1, “Glial cell line-derived neurotrophic factor” (Amgen Inc., priority 1991, dated 2002).

Legend:
[1] = test system: dopaminergic neurons in rat embryo (E16) mesencephalic cell cultures; assay: Bioassay for dopaminergic neurotrophic activity: 3H-dopamine uptake in dissociated mesencephalic cell cultures; format: cell-based; conditions: for FOLD (specific activity relative to B49 conditioned medium): purification fold over CM
Experimental: The dopaminergic activity of the GDNF is used to facilitate the purification process. […] Briefly, cultures of dissociated mesencephalic cells are prepared, either in serum rich or serum free environments. Samples to be tested for dopaminergic activity are desalted and serially added to the cell cultures and the dishes are incubated for 6 days at 37° C. in a humidified atmosphere containing 6.5% CO2. The cultures, in the presence of the testing material, are then incubated at 37° C. with tritiated dopamine (^3H-DA). The dopamine uptake is halted, the cells washed, and the dopamine uptake analyzed by scintillation counting of retained tritium in the cultures.
Culture conditions: Dissociated mesencephalic cell cultures were prepared as previously described (Friedman and Mytilineou 1987 Neurosci. Lett. 79:65-72), with minor modifications. Briefly, rostral mesencephalic tegmentum from brains of Sprague-Dawley rat embryos, at the 16th day of gestation, were dissected under the microscope in sterile conditions, collected in Ca^2+- and Mg^2+-free Dulbecco's phosphate buffered saline (Gibco, Gaithersburg, Md.) and dissociated mechanically by mild trituration. The cells were plated in 100 μl per well onto 16-mm diameter tissue culture wells (Falcon, Lincoln Park, N.J., 24-well plate) containing 400 μl medium to give a density of 2.5-3.5×10^5 cells per well. The culture wells had been previously exposed to 0.1 mg/ml solution of poly L-ornithine in 10 mM sodium borate, pH 8.4, for 3 hours at 37° C., washed 3 times in milli-Q H2O and once in Earle's balanced salt solution (Gibco). The feeding medium (10/10) consisted of minimal essential medium (MEM, Gibco) supplemented with glucose (33 mM), sodium bicarbonate (24.5 mM), glutamine (2 mM), HEPES (15 mM), penicillin G (5 U/ml), streptomycin (5 μg/ml), 10% heat-inactivated fetal calf serum (Gibco) and 10% heat inactivated horse serum (Gibco). The cultures were kept at 37° C. in a water-saturated atmosphere containing 6.5% CO2. After 3 hours, when most of the cells had adhered to the bottom of the well, the medium was replaced with 500 μl of fresh medium. At this time, a serial dilution of the sample to be assayed for GDNF activity was added to each well in duplicate and the plates were incubated in the 37° C. incubator. After a week, the cultures were treated for 24 hours with fluorodeoxyuridine (13 μg/ml) and uridine (33 μg/ml) to prevent excessive glial proliferation and subsequently fed with the above medium without fetal calf serum. The feeding medium was changed weekly.
Alternatively, chemically defined serum-free medium was used in which serum was replaced by a mixture of proteins; hormones and salts. The defined medium (DM) consisted of a mixture of MEM and F12 nutrient mixture (both Gibco, 1:1; vol/vol) with glucose (33 mM), glutamine (2 mM) NaHCO3 (24.5 mM), HEPES (15 mM), supplemented with transferrin (100 μg/ml), insulin (25 μg/ml), putrescine (60 μM), progesterone (20 nM), sodium selenite (30 nM), penicillin G (5 U/ml) and streptomycin (5 μg/ml). The osmolarity of the DM was adjusted to 325 by the addition of milli-Q H2O. (110-125 ml H2O/l). […] All assays reached in the following examples were done in serum-containing medium.
The functional status of the dopaminergic neurons may be assayed in these cultures by measuring dopamine uptake through specific “scavenger” transporters in the dopaminergic neurons and by counting the number of neurons positive for the dopamine synthetic enzyme tyrosine hydroxylase using immunohistochemistry.

[2] = test system: TH+ dopamine neurons in mesencephalic cultures; assay: Tyrosine hydroxylase (TH) immunoreactivity in mesencephalic cultures; format: cell-based, rat; conditions: added at day of plating, examined eight days later
Experimental: FIGS. 20A-B depicts the ability of GDNF to stimulate dopamine uptake and tyrosine hydroxylase (TH) immunostaining in dopaminergic neurons. Cultures were established as described in Example 1B. […] B. […] Primary antibody binding was visualized using a Vectastain ABC kit (Vector Labs, Burlingame, Calif.).
Culture conditions: Dissociated mesencephalic cell cultures were prepared as previously described (Friedman and Mytilineou 1987 Neurosci. Lett. 79:65-72), with minor modifications. Briefly, rostral mesencephalic tegmentum from brains of Sprague-Dawley rat embryos, at the 16th day of gestation, were dissected under the microscope in sterile conditions, collected in Ca^2+- and Mg^2+-free Dulbecco's phosphate buffered saline (Gibco, Gaithersburg, Md.) and dissociated mechanically by mild trituration. The cells were plated in 100 μl per well onto 16-mm diameter tissue culture wells (Falcon, Lincoln Park, N.J., 24-well plate) containing 400 μl medium to give a density of 2.5-3.5×10^5 cells per well. The culture wells had been previously exposed to 0.1 mg/ml solution of poly L-ornithine in 10 mM sodium borate, pH 8.4, for 3 hours at 37° C., washed 3 times in milli-Q H2O and once in Earle's balanced salt solution (Gibco). […]

[3] = test system: dopaminergic neurons in rat embryo (E16) mesencephalic cell cultures; assay: Bioassay for dopaminergic neurotrophic activity: 3H-dopamine uptake in dissociated mesencephalic cell cultures; format: cell-based; conditions: cultures grown with GDNF for 15 days

B1: glial cell line-derived neurotrophic factor (protein)
chain: SNMPEDYPDQFDDVMDFIQATIKRLKRSPDKQMAVLPRRERNRQAAAANPENSRGKGRRGQRGKNRGCVLTAIHLNVTDLGLGYETKEELIFRYCSGSCDAAETTYDKILKNLSRNRRLVTDKVGQACCRPIAF
notes: dopaminergic neurotrophic protein purified from serum-free conditioned medium of rat B49 glioblastoma cells; disulfide-bonded dimer
With B1 the “bioactivity in dopamine uptake assay” value [1] was “active in stimulating dopamine uptake in both serum-containing and defined media”, the “SP. ACT (specific activity, dopamine uptake trophic units per protein)” value ([1]; TU = reciprocal of dilution giving 50% of maximal stimulation of 3H-DA uptake) was “at least 12,000 TU/μg” and the “concentration for half-maximal stimulation of dopamine uptake” value ([1]; indicated by the specific activity) was “approximately 60 pg/ml”. The “FOLD (specific activity relative to B49 conditioned medium)” value [1] was “about 24,000”, the “FOLD (specific activity relative to B49 conditioned medium)” value ([1]; listed as substantially purified GDNF) was “at least 24,000” and the estimated specific activity ([1]; purified GDNF after final RP-HPLC) was “about 17 trophic units/ng”. For the same molecule, the “ED50 for increasing dopamine uptake” value ([1]; rat embryo (E16) mesencephalic culture) was “about 50 pg/ml”, the “number of TH+ neurons over controls without GDNF” value [2] was “tenfold higher” and the “3H-DA uptake capacity over control without GDNF” value [3] was ~150%.
